Test results reported in IntAct's records for PubMed 28258151.

B1: Complement factor H (Homo sapiens), P08603 (parent)
chain: MRLLAKIICLMLWAICVAEDCNELPPRRNTEILTGSWSDQTYPEGTQAIYKCRPGYRSLGNVIMVCRKGEWVALNPLRKCQKRPCGHPGDTPFGTFTLTGGNVFEYGVKAVYTCNEGYQLLGEINYRECDTDGWTNDIPICEVVKCLPVTAPENGKIVSSAMEPDREYHFGQAVRFVCNSGYKIEGDEEMHCSDDGFWSKEKPKCVEISCKSPDVINGSPISQKIIYKENERFQYKCNMGYEYSERGDAVCTESGWRPLPSCEEKSCDNPYIPNGDYSPLRIKHRTGDEITYQCRNGFYPATRGNTAKCTSTGWIPAPRCTLKPCDYPDIKHGGLYHENMRRPYFPVAVGKYYSYYCDEHFETPSGSYWDHIHCTQDGWSPAVPCLRKCYFPYLENGYNQNYGRKFVQGKSIDVACHPGYALPKAQTTVTCMENGWSPTPRCIRVKTCSKSSIDIENGFISESQYTYALKEKAKYQCKLGYVTADGETSGSITCGKDGWSAQPTCIKSCDIPVFMNARTKNDFTWFKLNDTLDYECHDGYESNTGSTTGSIVCGYNGWSDLPICYERECELPKIDVHLVPDRKKDQYKVGEVLKFSCKPGFTIVGPNSVQCYHFGLSPDLPICKEQVQSCGPPPELLNGNVKEKTKEEYGHSEVVEYYCNPRFLMKGPNKIQCVDGEWTTLPVCIVEESTCGDIPELEHGWAQLSSPPYYYGDSVEFNCSESFTMIGHRSITCIHGVWTQLPQCVAIDKLKKCKSSNLIILEEHLKNKKEFDHNSNIRYRCRGKEGWIHTVCINGRWDPEVNCSMAQIQLCPPPPQIPNSHNMTTTLNYRDGEKVSVLCQENYLIQEGEEITCKDGRWQSIPLCVEKIPCSQPPQIEHGTINSSRSSQESYAHGTKLSYTCEGGFRISEENETTCYMGKWSSPPQCEGLPCKSPPEISHGVVAHMSDSYQYGEEVTYKCFEGFGIDGPAIAKCLGEKWSHPPSCIKTDCLSLPSFENAIPMGEKKDVYKAGEQVTYTCATYYKMDGASNVTCINSRWTGRPTCRDTSCVNPPTVQNAYIVSRQMSKYPSGERVRYQCRSPYEMFGDEEVMCLNGNWTEPPQCKDSTGKCGPPPPIDNGDITSFPLSVYAPASSVEYQCQNLYQLEGNKRITCRNGQWSEPPKCLHPCVISREIMENYNIALRWTAKQKLYSRTGESVEFVCKRGYRLSSRSHTLRTTCWDGKLEYPTCAKR

Variants of: B1
Conditions: with sdre_staam sdrE

Row | Variant | effect of a mutation on the interaction
1 | R1215A | with no effect
2 | K1222A | with no effect
3 | D1220A | with no effect
4 | Y1225A | increasing interaction
5 | R1206A | disrupting interaction
6 | L1207A | decreasing interaction
7 | S1211A | decreasing interaction
8 | C1218A | increasing interaction
9 | E1224A | increasing interaction
10 | S1209A | decreasing interaction
11 | W1219A | with no effect
12 | T1217A | with no effect
13 | H1212A | increasing interaction
14 | T1216A | increasing interaction
15 | R1210A | increasing interaction
16 | P1226A | decreasing interaction
17 | T1213A | increasing interaction
18 | L1223A | increasing interaction
19 | S1208A | disrupting interaction
20 | L1214A | increasing interaction
